# Source: patent US20080305212A1
# T1: Trypsin-like protease (TL1) from Fusarium oxysporum (Fusarium oxysporum) (UniProt P35049)
# T1 sequence: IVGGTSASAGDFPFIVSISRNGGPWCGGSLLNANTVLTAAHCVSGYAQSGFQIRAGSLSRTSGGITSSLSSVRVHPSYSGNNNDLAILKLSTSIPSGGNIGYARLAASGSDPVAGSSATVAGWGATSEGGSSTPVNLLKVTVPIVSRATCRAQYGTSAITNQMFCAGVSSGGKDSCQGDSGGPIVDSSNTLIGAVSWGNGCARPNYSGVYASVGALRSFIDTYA
# T2: Trypsin-like protease (TL5) from Fusarium solani (Fusarium solani)
# T2 sequence: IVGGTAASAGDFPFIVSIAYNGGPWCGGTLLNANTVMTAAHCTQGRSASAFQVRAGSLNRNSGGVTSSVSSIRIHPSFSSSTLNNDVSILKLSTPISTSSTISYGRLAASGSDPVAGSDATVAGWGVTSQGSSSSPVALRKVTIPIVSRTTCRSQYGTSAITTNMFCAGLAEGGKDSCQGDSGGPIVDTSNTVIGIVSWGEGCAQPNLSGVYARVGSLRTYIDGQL
# T3: Trypsin-like protease (TL6) from Fusarium cf. solani (Fusarium cf. solani)
# T3 sequence: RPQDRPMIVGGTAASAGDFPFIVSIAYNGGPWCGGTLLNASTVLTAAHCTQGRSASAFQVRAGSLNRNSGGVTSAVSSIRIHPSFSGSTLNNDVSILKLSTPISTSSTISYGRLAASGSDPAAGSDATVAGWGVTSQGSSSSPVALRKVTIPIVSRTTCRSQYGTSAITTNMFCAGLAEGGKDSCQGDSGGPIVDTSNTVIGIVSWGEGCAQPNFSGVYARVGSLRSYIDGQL
# B1: Bowman-Birk inhibitor (commercial preparation, Cat # T-9777, Sigma-Aldrich) (protein, UniProt P01055 40-110, looked up)
# chain: DDESSKPCCDQCACTKSNPPQCRCSDMRLNSCHSACKSCICALSYPAQCFCVDITDFCYEPCKPSEDDKEN
# What was measured:
# Assay in all cases: cell-based or functional assay
# [1] = biological target: T1, Trypsin-like protease (TL1) from Fusarium oxysporum (Fusarium oxysporum)
# [2] = biological target: T2, Trypsin-like protease (TL5) from Fusarium solani (Fusarium solani)
# [3] = biological target: T3, Trypsin-like protease (TL6) from Fusarium cf. solani (Fusarium cf. solani)
# [4] = biological target: bovine trypsin (bovine) (UniProt P00760)
# [5] = biological target: porcine trypsin (porcine) (UniProt P00761)
binder,measurement,setting,value
B1,% residual activity at 0.00048 mg/ml Bowman-Birk inhibitor (% residual activity),[1],117
same,% residual activity at 0.00097 mg/ml Bowman-Birk inhibitor (% residual activity),[1],111
same,% residual activity at 0.00195 mg/ml Bowman-Birk inhibitor (% residual activity),[1],103
same,% residual activity at 0.0039 mg/ml Bowman-Birk inhibitor (% residual activity),[1],109
same,% residual activity at 0.0078 mg/ml Bowman-Birk inhibitor (% residual activity),[1],82
same,% residual activity at 0.0156 mg/ml Bowman-Birk inhibitor (% residual activity),[1],61
same,% residual activity at 0.0313 mg/ml Bowman-Birk inhibitor (% residual activity),[1],32
same,% residual activity at 0.0625 mg/ml Bowman-Birk inhibitor (% residual activity),[1],13
same,% residual activity at 0.125 mg/ml Bowman-Birk inhibitor (% residual activity),[1],5.8
same,% residual activity at 0.25 mg/ml Bowman-Birk inhibitor (% residual activity),[1],2.2
same,% residual activity at 0.5 mg/ml Bowman-Birk inhibitor (% residual activity),[1],0.8
same,% residual activity at 0.00048 mg/ml Bowman-Birk inhibitor (% residual activity),[2],78
same,% residual activity at 0.00097 mg/ml Bowman-Birk inhibitor (% residual activity),[2],71
same,% residual activity at 0.00195 mg/ml Bowman-Birk inhibitor (% residual activity),[2],57
same,% residual activity at 0.0039 mg/ml Bowman-Birk inhibitor (% residual activity),[2],55
same,% residual activity at 0.0078 mg/ml Bowman-Birk inhibitor (% residual activity),[2],43
same,% residual activity at 0.0156 mg/ml Bowman-Birk inhibitor (% residual activity),[2],29
same,% residual activity at 0.0313 mg/ml Bowman-Birk inhibitor (% residual activity),[2],19
same,% residual activity at 0.0625 mg/ml Bowman-Birk inhibitor (% residual activity),[2],7.2
same,% residual activity at 0.125 mg/ml Bowman-Birk inhibitor (% residual activity),[2],3.1
same,% residual activity at 0.25 mg/ml Bowman-Birk inhibitor (% residual activity),[2],1.2
same,% residual activity at 0.5 mg/ml Bowman-Birk inhibitor (% residual activity),[2],0.5
same,% residual activity at 0.00048 mg/ml Bowman-Birk inhibitor (% residual activity),[3],104
same,% residual activity at 0.00097 mg/ml Bowman-Birk inhibitor (% residual activity),[3],107
same,% residual activity at 0.00195 mg/ml Bowman-Birk inhibitor (% residual activity),[3],94
same,% residual activity at 0.0039 mg/ml Bowman-Birk inhibitor (% residual activity),[3],97
same,% residual activity at 0.0078 mg/ml Bowman-Birk inhibitor (% residual activity),[3],84
same,% residual activity at 0.0156 mg/ml Bowman-Birk inhibitor (% residual activity),[3],66
same,% residual activity at 0.0313 mg/ml Bowman-Birk inhibitor (% residual activity),[3],55
same,% residual activity at 0.0625 mg/ml Bowman-Birk inhibitor (% residual activity),[3],26
same,% residual activity at 0.125 mg/ml Bowman-Birk inhibitor (% residual activity),[3],9.5
same,% residual activity at 0.25 mg/ml Bowman-Birk inhibitor (% residual activity),[3],2.9
same,% residual activity at 0.5 mg/ml Bowman-Birk inhibitor (% residual activity),[3],1.3
same,% residual activity at 0.00048 mg/ml Bowman-Birk inhibitor (% residual activity),[4],0.9
same,% residual activity at 0.00097 mg/ml Bowman-Birk inhibitor (% residual activity),[4],5.3
same,% residual activity at 0.00195 mg/ml Bowman-Birk inhibitor (% residual activity),[4],0.1
same,% residual activity at 0.0039 mg/ml Bowman-Birk inhibitor (% residual activity),[4],-0.4
same,% residual activity at 0.0078 mg/ml Bowman-Birk inhibitor (% residual activity),[4],0
same,% residual activity at 0.0156 mg/ml Bowman-Birk inhibitor (% residual activity),[4],-1.5
same,% residual activity at 0.0313 mg/ml Bowman-Birk inhibitor (% residual activity),[4],0.1
same,% residual activity at 0.0625 mg/ml Bowman-Birk inhibitor (% residual activity),[4],0
same,% residual activity at 0.125 mg/ml Bowman-Birk inhibitor (% residual activity),[4],0
same,% residual activity at 0.25 mg/ml Bowman-Birk inhibitor (% residual activity),[4],0
same,% residual activity at 0.5 mg/ml Bowman-Birk inhibitor (% residual activity),[4],0
same,% residual activity at 0.00048 mg/ml Bowman-Birk inhibitor (% residual activity),[5],11
same,% residual activity at 0.00097 mg/ml Bowman-Birk inhibitor (% residual activity),[5],9.4
same,% residual activity at 0.00195 mg/ml Bowman-Birk inhibitor (% residual activity),[5],8.3
same,% residual activity at 0.0039 mg/ml Bowman-Birk inhibitor (% residual activity),[5],6.2
same,% residual activity at 0.0078 mg/ml Bowman-Birk inhibitor (% residual activity),[5],3.2
same,% residual activity at 0.0156 mg/ml Bowman-Birk inhibitor (% residual activity),[5],2.2
same,% residual activity at 0.0313 mg/ml Bowman-Birk inhibitor (% residual activity),[5],1
same,% residual activity at 0.0625 mg/ml Bowman-Birk inhibitor (% residual activity),[5],0.4
same,% residual activity at 0.125 mg/ml Bowman-Birk inhibitor (% residual activity),[5],0.2
same,% residual activity at 0.25 mg/ml Bowman-Birk inhibitor (% residual activity),[5],0.1
same,% residual activity at 0.5 mg/ml Bowman-Birk inhibitor (% residual activity),[5],0.1
